± gives the standard deviation of the averaged measurements.

This data set concerns ATP. As to the kind of experiment: switch fluorescence ratio, 500 uM ATP over buffer (Cy3 cluster intensity, sum of 5 cycles each) (fold (ratio)); higher = stronger signal-on switching upon ATP binding; sequences stand for … in TCGTCGGCAGCGTCAGATGTGTATAAGAGACAGTTTTTTTTTTTTTTTTTTTTTTTTT…TC. To be noted: aptamer strand: ATP DNA aptamer (quencher-CACCTGGGGGAGTATTGCGGAGGAAGG + anchor), 100 nM annealed; ATP concentration: 500 uM. In a few lines: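 The fluorescence ratio divides summed target-cycle Cy3 intensity by summed buffer-cycle Cy3 intensity for each cluster and is averaged per switch-domain sequence. Cy3-labelled switching-strand clusters on a modified Illumina MiSeq flow-cell were annealed to 100 nM quencher-labelled ATP aptamer, then imaged in selection buffer and again after 15 min with 500 uM ATP at 22 °C. Five such cycles were run, with NaOH stripping and re-annealing between them, and clusters outside 100-1000 RFU were excluded.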
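Also: ATP exposure 15 min at 22 °C before imaging.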

Take TTGGCTTTAT: the switch fluorescence ratio is 0.982 ± 0.04.
Consider TTGGGAAATG, for which the switch fluorescence ratio amounted to 0.985 ± 0.042.
TTGGGAAGGG: the switch fluorescence ratio worked out at 1 ± 0.032.
In the case of TTGGGAAGTT it was 1.02 ± 0.031; in that of TTGGGAATCC, 1.03 ± 0.12.
For the sequence TTGGGACAGC, the switch fluorescence ratio stood at 1.003 ± 0.0014.
Consider TTGGGACTGG, for which the switch fluorescence ratio was 1.12 ± 0.14.
To TTGGGAGGAT belongs 1.12 ± 0.2; to TTGGGAGTAC, 0.942 ± 0.059; to TTGGGATAGG, 1.01 ± 0.029.
With TTGGGATCCG, the switch fluorescence ratio worked out at 0.985 ± 0.016.
As to TTGGGATGGT, the switch fluorescence ratio is 1.02 ± 0.029.
TTGGGATTAA: the switch fluorescence ratio worked out at 1.05 ± 0.053.
For TTGGGATTCT, the switch fluorescence ratio came to 0.979 ± 0.019.
TTGGGCAGTT: the switch fluorescence ratio is 0.98 ± 0.051.
For the sequence TTGGGCATCT, the switch fluorescence ratio came to 1.003 ± 0.0031.
Regarding TTGGGCCACG, the switch fluorescence ratio was determined as 0.983 ± 0.011.
For TTGGGCCATG, the switch fluorescence ratio amounted to 1.05 ± 0.027.
In the case of TTGGGCCCCT it was 0.9967 ± 0.0024.
Regarding TTGGGCCCGG, the switch fluorescence ratio is 0.9878 ± 0.0073.
With TTGGGCGAAT, the switch fluorescence ratio was 0.988 ± 0.021.
Turning to TTGGGCGCAT, the switch fluorescence ratio was 0.99 ± 0.025.
For TTGGGCGGTT, the switch fluorescence ratio is 1.13 ± 0.25.
Turning to TTGGGCGTTC, the switch fluorescence ratio was determined as 1.12 ± 0.15.
As for TTGGGCTAAT, the switch fluorescence ratio came out at 0.994 ± 0.029.
Regarding TTGGGGAA, the switch fluorescence ratio worked out at 0.985 ± 0.025.
Regarding TTGGGGAACC, the switch fluorescence ratio stood at 0.9866 ± 0.009.
For the sequence TTGGGGAAG, the switch fluorescence ratio was 0.9853 ± 0.0061.
As to TTGGGGACGG, the switch fluorescence ratio worked out at 1 ± 0.038.
On to TTGGGGAGGC, for which the switch fluorescence ratio was determined as 0.9835 ± 0.0015.
For the sequence TTGGGGAGGG, the switch fluorescence ratio came to 1.02 ± 0.05.
As to TTGGGGAGTG, the switch fluorescence ratio was determined as 0.988 ± 0.017.
As to TTGGGGATGA, the switch fluorescence ratio turned out to be 1.01 ± 0.016.
For TTGGGGATTT, the switch fluorescence ratio stood at 0.997 ± 0.029.
On to TTGGGGCAGC, for which the switch fluorescence ratio came out at 0.995 ± 0.013.
Regarding TTGGGGCAGT, the switch fluorescence ratio is 0.997 ± 0.035.
TTGGGGCGGG: the switch fluorescence ratio amounted to 1.01 ± 0.039.
To TTGGGGGAAA belongs 1 ± 0.02.
In the case of TTGGGGGCA it was 1.03 ± 0.045.
With TTGGGGGCGC, the switch fluorescence ratio worked out at 1.01 ± 0.031.
To TTGGGGGCGT belongs 1.03 ± 0.058; to TTGGGGGGA, 0.997 ± 0.048; to TTGGGGGGCA, 1.32 ± 0.65.
For the sequence TTGGGGGGTC, the switch fluorescence ratio was 1 ± 0.034.
To TTGGGGGTAA belongs 0.987 ± 0.018; to TTGGGGGTGA, 1 ± 0.042.
TTGGGGGTTG: the switch fluorescence ratio amounted to 1 ± 0.044.
For TTGGGGGTTT, the switch fluorescence ratio was found to be 1.02 ± 0.036.
In the case of TTGGGGTAAA it was 1.03 ± 0.044; in that of TTGGGGTAAG, 0.971 ± 0.03; in that of TTGGGGTCGA, 0.951 ± 0.04.
Regarding TTGGGGTGCC, the switch fluorescence ratio was determined as 1.01 ± 0.018.
With TTGGGGTGTT, the switch fluorescence ratio was found to be 1 ± 0.031.
As for TTGGGGTTTC, the switch fluorescence ratio was determined as 0.998 ± 0.033.
TTGGGTAGAA: the switch fluorescence ratio came to 0.986 ± 0.045.
Regarding TTGGGTCAGG, the switch fluorescence ratio was 1.02 ± 0.028.
For TTGGGTGAGT, the switch fluorescence ratio was determined as 1.01 ± 0.014.
For TTGGGTGGCA, the switch fluorescence ratio was found to be 1.03 ± 0.039.
On to TTGGGTTAAC, for which the switch fluorescence ratio came out at 0.9737 ± 0.006.
To TTGGGTTCCC belongs 1.01 ± 0.05; to TTGGGTTGCG, 0.964 ± 0.035.
In the case of TTGGGTTGGA, the switch fluorescence ratio is 0.996 ± 0.017.
For TTGGGTTTAC, the switch fluorescence ratio was determined as 1.02 ± 0.049.
TTGGGTTTCA: the switch fluorescence ratio came to 0.995 ± 0.053.
Turning to TTGGTACTGA, the switch fluorescence ratio was 1.04 ± 0.049.
In the case of TTGGTAGATT it was 0.984 ± 0.047; in that of TTGGTAGGTG, 1.04 ± 0.058; in that of TTGGTCAAAT, 1.04 ± 0.022.
Consider TTGGTCAAGG, for which the switch fluorescence ratio is 0.995 ± 0.045.
For TTGGTCGCGG, the switch fluorescence ratio is 0.97078 ± 5.7e-05.
In the case of TTGGTCGGGT it was 1.02 ± 0.024.
Take TTGGTCTATG: the switch fluorescence ratio was 0.986 ± 0.027.
In the case of TTGGTCTTTT it was 0.976 ± 0.012; in that of TTGGTGACGC, 1.01 ± 0.026.
In the case of TTGGTGATGT it was 0.994 ± 0.044; in that of TTGGTGGCGT, 0.995 ± 0.01.
As to TTGGTGGGAA, the switch fluorescence ratio came out at 1 ± 0.025.
For TTGGTGGTTG, the switch fluorescence ratio is 0.993 ± 0.029.
For TTGGTGTAAG, the switch fluorescence ratio was 1.0001 ± 0.00079.
For TTGGTGTCAG, the switch fluorescence ratio is 1.02 ± 0.018.
In the case of TTGGTGTCGG it was 0.974 ± 0.036; in that of TTGGTGTTCT, 1.08 ± 0.039; in that of TTGGTTACAC, 1.006 ± 0.0013.
As to TTGGTTACAT, the switch fluorescence ratio amounted to 0.994 ± 0.013.
In the case of TTGGTTGTAA it was 1.03 ± 0.059.
TTGGTTTGAG: the switch fluorescence ratio came to 1.016 ± 0.0031.
Turning to TTGGTTTGTT, the switch fluorescence ratio stood at 0.982 ± 0.018.
Regarding TTGGTTTTAT, the switch fluorescence ratio stood at 1.02 ± 0.014.
As for TTGGTTTTTG, the switch fluorescence ratio is 1 ± 0.037.
TTGTAAAATA: the switch fluorescence ratio stood at 0.978 ± 0.058.
TTGTAAATGA: the switch fluorescence ratio is 1.02 ± 0.015.
As for TTGTAAGATC, the switch fluorescence ratio was found to be 1.02 ± 0.029.
Regarding TTGTAAGGGG, the switch fluorescence ratio is 1.009 ± 0.0031.
To TTGTAAGTT belongs 0.99664 ± 0.00012; to TTGTAATTCT, 1.167 ± 0.0018.
For TTGTACCATA, the switch fluorescence ratio worked out at 1.1 ± 0.071.
Consider TTGTAGAATG, for which the switch fluorescence ratio was 0.9821 ± 0.0066.
For TTGTAGCACG, the switch fluorescence ratio turned out to be 1.07 ± 0.037.
As to TTGTAGGGCC, the switch fluorescence ratio was 1.03 ± 0.022.
For TTGTAGTCGG, the switch fluorescence ratio is 1 ± 0.053.
Take TTGTATAAA: the switch fluorescence ratio was 1 ± 0.022.
As for TTGTATACCT, the switch fluorescence ratio was determined as 1.17 ± 0.02.
To TTGTATAGGA belongs 0.998 ± 0.029; to TTGTATGAGT, 0.986 ± 0.025; to TTGTATGGGG, 0.984 ± 0.033.
In the case of TTGTATGTAC, the switch fluorescence ratio was determined as 1.22 ± 0.13.
Regarding TTGTATGTCT, the switch fluorescence ratio was determined as 0.991 ± 0.044.
On to TTGTATTAGT, for which the switch fluorescence ratio was determined as 0.9835 ± 0.0093.
TTGTATTCGG: the switch fluorescence ratio came to 1 ± 0.03.
TTGTATTTGT: the switch fluorescence ratio was determined as 0.999 ± 0.031.
Turning to TTGTCAGCGT, the switch fluorescence ratio is 0.997 ± 0.012.
In the case of TTGTCCGAGC it was 1.06 ± 0.023; in that of TTGTCCGTAG, 1.0583 ± 0.00024.
For the sequence TTGTCCTTTG, the switch fluorescence ratio was found to be 0.993 ± 0.013.
Consider TTGTCTGTCC, for which the switch fluorescence ratio was 0.98 ± 0.018.
Take TTGTGAACTT: the switch fluorescence ratio was 0.9794 ± 0.0046.
To TTGTGAATAT belongs 1 ± 0.044.
TTGTGAGCAA: the switch fluorescence ratio was 1.33 ± 0.11.
TTGTGAGGGA: the switch fluorescence ratio worked out at 0.9946 ± 0.0034.
As for TTGTGAGTCT, the switch fluorescence ratio turned out to be 1.01 ± 0.011.

These data come from the supplement of paper PMC10126150.
